The target in assay [1] is T1, progesterone receptor (UniProt P06401 1-933, limits assumed).
T1 construct: The assay and the construct are not described; also called a related receptor, the progesterone receptor
T1 sequence (looked up): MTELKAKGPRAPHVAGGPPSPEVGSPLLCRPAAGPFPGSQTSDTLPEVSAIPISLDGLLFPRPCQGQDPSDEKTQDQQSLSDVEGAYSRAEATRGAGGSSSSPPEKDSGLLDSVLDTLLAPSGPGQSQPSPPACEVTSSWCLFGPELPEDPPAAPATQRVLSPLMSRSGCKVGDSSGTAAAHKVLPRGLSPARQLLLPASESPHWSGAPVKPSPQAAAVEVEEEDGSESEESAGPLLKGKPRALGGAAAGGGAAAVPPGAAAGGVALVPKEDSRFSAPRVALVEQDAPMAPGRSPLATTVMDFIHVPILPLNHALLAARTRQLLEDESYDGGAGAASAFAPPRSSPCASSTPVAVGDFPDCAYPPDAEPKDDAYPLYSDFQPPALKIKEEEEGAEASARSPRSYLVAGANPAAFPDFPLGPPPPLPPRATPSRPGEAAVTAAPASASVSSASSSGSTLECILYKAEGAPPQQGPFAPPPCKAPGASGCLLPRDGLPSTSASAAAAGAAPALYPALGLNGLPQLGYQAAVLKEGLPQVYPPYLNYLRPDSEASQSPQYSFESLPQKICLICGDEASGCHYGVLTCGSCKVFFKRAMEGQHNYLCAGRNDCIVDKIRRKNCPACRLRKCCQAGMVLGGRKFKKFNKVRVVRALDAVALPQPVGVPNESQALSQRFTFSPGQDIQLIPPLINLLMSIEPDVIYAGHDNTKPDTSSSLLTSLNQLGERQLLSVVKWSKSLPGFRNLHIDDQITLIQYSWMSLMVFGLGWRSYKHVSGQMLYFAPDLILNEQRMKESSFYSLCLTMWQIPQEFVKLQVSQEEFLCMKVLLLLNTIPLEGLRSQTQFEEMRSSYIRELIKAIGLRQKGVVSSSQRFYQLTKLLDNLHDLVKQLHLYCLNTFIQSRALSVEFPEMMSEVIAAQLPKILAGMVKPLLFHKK
In words: not described.

Assay [2] has as its target T2, full length androgen receptor (human, UniProt P10275 1-920).
T2 construct: Full length AR expressed inside transfected cells (intracellular, not on the surface); also called AR; full length AR
T2 sequence: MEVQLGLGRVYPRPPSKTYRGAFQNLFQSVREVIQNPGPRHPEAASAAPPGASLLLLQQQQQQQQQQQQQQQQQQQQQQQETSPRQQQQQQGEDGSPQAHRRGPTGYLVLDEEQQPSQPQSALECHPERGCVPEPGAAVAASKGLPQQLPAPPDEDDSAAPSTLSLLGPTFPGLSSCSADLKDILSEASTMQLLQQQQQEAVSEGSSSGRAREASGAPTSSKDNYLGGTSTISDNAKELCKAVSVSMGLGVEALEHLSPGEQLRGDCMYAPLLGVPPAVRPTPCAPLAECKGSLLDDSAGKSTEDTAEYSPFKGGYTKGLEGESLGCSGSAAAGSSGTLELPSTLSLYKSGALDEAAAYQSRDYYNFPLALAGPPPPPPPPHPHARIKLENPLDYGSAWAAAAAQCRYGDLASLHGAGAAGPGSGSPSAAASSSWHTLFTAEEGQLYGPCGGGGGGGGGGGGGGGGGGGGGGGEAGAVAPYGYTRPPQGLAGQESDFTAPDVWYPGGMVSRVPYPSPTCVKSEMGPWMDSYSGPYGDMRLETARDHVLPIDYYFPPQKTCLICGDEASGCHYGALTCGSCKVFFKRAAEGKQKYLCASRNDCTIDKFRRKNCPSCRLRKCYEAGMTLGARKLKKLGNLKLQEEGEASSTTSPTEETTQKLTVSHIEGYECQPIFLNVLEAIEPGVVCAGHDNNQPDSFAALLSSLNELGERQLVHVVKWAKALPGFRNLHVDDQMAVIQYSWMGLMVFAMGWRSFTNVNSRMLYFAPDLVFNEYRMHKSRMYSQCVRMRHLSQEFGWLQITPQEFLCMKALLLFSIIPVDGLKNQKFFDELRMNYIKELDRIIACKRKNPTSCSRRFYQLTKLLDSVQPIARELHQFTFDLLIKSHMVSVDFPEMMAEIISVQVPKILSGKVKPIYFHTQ
In words: not described.

From patent US20130064881A1 (GRADALIS, published 2013) come the findings set out here.

B1: SRCdp100: Amino acids 1050-1150 of SRC-1 (peptide)
peptide: MAPNQLRLQLQQRLQGQQQLIHQNRQAILNQFAATAPVGINMRSGMQQQITPQPPLNAQMLAQRQRELYSQQHRQRQLIQQQRAMLMRQQSFGNNLPPSSGL
notes: Expressed in cells from a transfected plasmid; also called SRCdp(P100); SRC derived peptide
On to B1, for which the binding result in assay [1] is “no binding”; in assay [2] it was “binds”.

B2: SRCdp200: Amino acids 1050-1240 of SRC-1 (peptide)
peptide: MAPNQLRLQLQQRLQGQQQLIHQNRQAILNQFAATAPVGINMRSGMQQQITPQPPLNAQMLAQRQRELYSQQHRQRQLIQQQRAMLMRQQSFGNNLPPSSGLPVQMGNPRLPQGAPQQFPYPPNYGTNPGTPPASTSPFSQLAANPEASLANRNSMVSRGMTGNIGGQFGTGINPQMQQNVFQYPGAGMVPQ
notes: Expressed in cells from a transfected plasmid; also called SRC derived peptide; 200 amino acid fragment
For the molecule B2, the binding result in assay [1] is “no binding”; in assay [2] it was “binds”.
